Reference: publication PMC9482650, “Quantitative fragmentomics allow affinity mapping of interactomes” (Nature Communications, 2022)

B1: MARCHF9, Q86YJ5 (peptide)
chain: REVVMRVTTV
B2: RAMP3, O60896 (peptide)
chain: WRSKRTDTLL
B3: C3AR1, Q16581 (peptide)
chain: VISERNSTTV
B4: AMOTL1, Q8IY63 (peptide)
chain: PDGEMMEVLI

Target: T1, PDZD2_2, O15018
T1 sequence (O15018 329-429, limits assumed, looked up): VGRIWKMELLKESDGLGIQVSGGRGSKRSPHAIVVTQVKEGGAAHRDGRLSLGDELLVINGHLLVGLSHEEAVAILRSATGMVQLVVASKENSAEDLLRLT
Test: holdup assay
Set-up: key: below the threshold = too weak to quantify, mostly under pKd 3.1 to 4
Conditions: plain residues with an end cap or a label only (N-terminal biotin on a linker: ado-ado)

| Binder | pKd |
| --- | --- |
| B1 | 4.37 |
| B2 | 3.52 |
| B3 | 4.55 |
| B4 | 3.77 |

Target: DLG1_1, Q12959
Test: holdup assay
Set-up: key: below the threshold = too weak to quantify, mostly under pKd 3.1 to 4
Conditions: plain residues with an end cap or a label only (N-terminal biotin on a linker: ado-ado)

| Binder | pKd |
| --- | --- |
| B1 | 5.24 |
| B2 | 3.84 |
| B3 | 4.44 |
| B4 | below the threshold |

Target: SNX27, Q96L92
Test: holdup assay
Set-up: key: below the threshold = too weak to quantify, mostly under pKd 3.1 to 4
Conditions: plain residues with an end cap or a label only (N-terminal biotin on a linker: ado-ado)

| Binder | pKd |
| --- | --- |
| B1 | 5.46 |
| B2 | 4.31 |
| B3 | 4.57 |
| B4 | below the threshold |

Target: SCRIB_3, Q14160
Sequence (Q14160 999-1103): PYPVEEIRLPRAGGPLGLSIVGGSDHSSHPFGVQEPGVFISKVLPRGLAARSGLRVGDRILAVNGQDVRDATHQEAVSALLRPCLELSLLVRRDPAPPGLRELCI
Test: holdup assay
Set-up: key: below the threshold = too weak to quantify, mostly under pKd 3.1 to 4
Conditions: plain residues with an end cap or a label only (N-terminal biotin on a linker: ado-ado)

| Binder | pKd |
| --- | --- |
| B1 | 4.43 |
| B2 | 3.98 |
| B3 | 3.62 |
| B4 | 3.74 |

Target: GRIP2_5, Q9C0E4
Sequence (Q9C0E4 544-642): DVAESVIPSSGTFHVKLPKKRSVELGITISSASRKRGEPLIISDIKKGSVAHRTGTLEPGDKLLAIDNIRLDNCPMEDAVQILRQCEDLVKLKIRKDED
Test: holdup assay
Set-up: key: below the threshold = too weak to quantify, mostly under pKd 3.1 to 4
Conditions: plain residues with an end cap or a label only (N-terminal biotin on a linker: ado-ado)

| Binder | pKd |
| --- | --- |
| B1 | below the threshold |
| B2 | below the threshold |
| B3 | below the threshold |
| B4 | below the threshold |

Target: T2, DFNB31_3, Q9P202
T2 sequence (Q9P202 811-907, limits assumed, looked up): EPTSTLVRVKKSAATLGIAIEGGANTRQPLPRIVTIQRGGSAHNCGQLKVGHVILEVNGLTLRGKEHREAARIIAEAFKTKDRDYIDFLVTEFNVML
Test: holdup assay
Set-up: key: below the threshold = too weak to quantify, mostly under pKd 3.1 to 4
Conditions: plain residues with an end cap or a label only (N-terminal biotin on a linker: ado-ado)

| Binder | pKd |
| --- | --- |
| B1 | 4.31 |
| B2 | below the threshold |
| B3 | below the threshold |
| B4 | 3.65 |

Target: TJP2_1, Q9UDY2
Sequence (Q9UDY2 24-128): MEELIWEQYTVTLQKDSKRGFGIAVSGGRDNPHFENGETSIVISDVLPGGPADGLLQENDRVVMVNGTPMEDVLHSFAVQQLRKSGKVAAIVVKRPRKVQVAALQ
Test: holdup assay
Set-up: key: below the threshold = too weak to quantify, mostly under pKd 3.1 to 4
Conditions: plain residues with an end cap or a label only (N-terminal biotin on a linker: ado-ado)

| Binder | pKd |
| --- | --- |
| B1 | 3.92 |
| B2 | below the threshold |
| B3 | below the threshold |
| B4 | below the threshold |

Target: T3, LIN7B, Q9HAP6
T3 sequence (Q9HAP6 88-185, limits assumed, looked up): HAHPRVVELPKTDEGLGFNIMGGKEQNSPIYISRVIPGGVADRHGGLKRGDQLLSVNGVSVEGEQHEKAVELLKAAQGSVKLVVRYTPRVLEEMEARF
Test: holdup assay
Set-up: key: below the threshold = too weak to quantify, mostly under pKd 3.1 to 4
Conditions: plain residues with an end cap or a label only (N-terminal biotin on a linker: ado-ado)

| Binder | pKd |
| --- | --- |
| B1 | 4.16 |
| B2 | below the threshold |
| B3 | below the threshold |
| B4 | 3.72 |

Target: T4, RAPGEF6, Q8TEU7
T4 sequence (Q8TEU7 525-625, limits assumed, looked up): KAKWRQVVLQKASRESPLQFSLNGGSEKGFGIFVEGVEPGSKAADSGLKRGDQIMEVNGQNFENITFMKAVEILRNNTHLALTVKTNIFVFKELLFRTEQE
Test: holdup assay
Set-up: key: below the threshold = too weak to quantify, mostly under pKd 3.1 to 4
Conditions: plain residues with an end cap or a label only (N-terminal biotin on a linker: ado-ado)

| Binder | pKd |
| --- | --- |
| B1 | below the threshold |
| B2 | below the threshold |
| B3 | below the threshold |
| B4 | below the threshold |

Target: T5, LRRC7, Q96NW7
T5 sequence (Q96NW7 1440-1537, limits assumed, looked up): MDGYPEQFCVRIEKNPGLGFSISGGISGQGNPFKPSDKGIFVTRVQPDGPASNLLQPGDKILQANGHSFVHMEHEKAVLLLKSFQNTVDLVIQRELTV
Test: holdup assay
Set-up: key: below the threshold = too weak to quantify, mostly under pKd 3.1 to 4
Conditions: plain residues with an end cap or a label only (N-terminal biotin on a linker: ado-ado)

| Binder | pKd |
| --- | --- |
| B1 | below the threshold |
| B2 | below the threshold |
| B3 | below the threshold |
| B4 | below the threshold |

Target: T6, MPDZ_12, O75970
T6 sequence (O75970 1857-1958, limits assumed, looked up): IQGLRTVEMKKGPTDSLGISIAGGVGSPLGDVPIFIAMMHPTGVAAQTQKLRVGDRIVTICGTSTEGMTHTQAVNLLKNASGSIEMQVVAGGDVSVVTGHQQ
Test: holdup assay
Set-up: key: below the threshold = too weak to quantify, mostly under pKd 3.1 to 4
Conditions: plain residues with an end cap or a label only (N-terminal biotin on a linker: ado-ado)

| Binder | pKd |
| --- | --- |
| B1 | below the threshold |
| B2 | below the threshold |
| B3 | below the threshold |
| B4 | below the threshold |

Target: T7, DFNB31_2, Q9P202
T7 sequence (Q9P202 274-371, limits assumed, looked up): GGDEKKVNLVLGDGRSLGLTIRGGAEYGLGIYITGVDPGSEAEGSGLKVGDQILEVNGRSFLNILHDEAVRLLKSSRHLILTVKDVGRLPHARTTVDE
Test: holdup assay
Set-up: key: below the threshold = too weak to quantify, mostly under pKd 3.1 to 4
Conditions: plain residues with an end cap or a label only (N-terminal biotin on a linker: ado-ado)

| Binder | pKd |
| --- | --- |
| B1 | 3.6 |
| B2 | below the threshold |
| B3 | below the threshold |
| B4 | below the threshold |

Target: T8, DLG3_3, Q92796
T8 sequence (Q92796 374-475, limits assumed, looked up): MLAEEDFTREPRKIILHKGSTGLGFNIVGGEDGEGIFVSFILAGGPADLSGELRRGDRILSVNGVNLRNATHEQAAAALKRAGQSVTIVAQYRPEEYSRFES
Test: holdup assay
Set-up: key: below the threshold = too weak to quantify, mostly under pKd 3.1 to 4
Conditions: plain residues with an end cap or a label only (N-terminal biotin on a linker: ado-ado)

| Binder | pKd |
| --- | --- |
| B1 | 4.64 |
| B2 | below the threshold |
| B3 | below the threshold |
| B4 | below the threshold |

Target: NHERF2_2, Q15599
Sequence (Q15599 142-238): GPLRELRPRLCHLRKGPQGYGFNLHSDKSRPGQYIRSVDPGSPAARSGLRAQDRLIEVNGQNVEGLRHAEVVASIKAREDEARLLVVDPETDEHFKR
Test: holdup assay
Set-up: key: below the threshold = too weak to quantify, mostly under pKd 3.1 to 4
Conditions: plain residues with an end cap or a label only (N-terminal biotin on a linker: ado-ado)

| Binder | pKd |
| --- | --- |
| B1 | below the threshold |
| B2 | 4.05 |
| B3 | 3.82 |
| B4 | below the threshold |

Target: PDZRN4_1, Q6ZMN7
Sequence (Q6ZMN7 213-318): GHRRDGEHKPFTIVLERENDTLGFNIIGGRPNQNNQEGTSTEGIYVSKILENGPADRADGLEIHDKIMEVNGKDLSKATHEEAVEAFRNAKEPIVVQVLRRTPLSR
Test: holdup assay
Set-up: key: below the threshold = too weak to quantify, mostly under pKd 3.1 to 4
Conditions: plain residues with an end cap or a label only (N-terminal biotin on a linker: ado-ado)

| Binder | pKd |
| --- | --- |
| B1 | 3.86 |
| B2 | 3.75 |
| B3 | 3.63 |
| B4 | below the threshold |

Target: T9, NHERF3_4, Q5T2W1
T9 sequence (Q5T2W1 373-468, limits assumed, looked up): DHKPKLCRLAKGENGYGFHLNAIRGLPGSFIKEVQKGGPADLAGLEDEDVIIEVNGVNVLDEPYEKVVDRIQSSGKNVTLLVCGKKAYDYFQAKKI
Test: holdup assay
Set-up: key: below the threshold = too weak to quantify, mostly under pKd 3.1 to 4
Conditions: plain residues with an end cap or a label only (N-terminal biotin on a linker: ado-ado)

| Binder | pKd |
| --- | --- |
| B1 | below the threshold |
| B2 | 3.53 |
| B3 | below the threshold |
| B4 | below the threshold |

Target: T10, GRIP1_4, Q9Y3R0
T10 sequence (Q9Y3R0 467-571, limits assumed, looked up): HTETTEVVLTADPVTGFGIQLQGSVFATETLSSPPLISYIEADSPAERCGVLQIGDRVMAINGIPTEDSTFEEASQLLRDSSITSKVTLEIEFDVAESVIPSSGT
Test: holdup assay
Set-up: key: below the threshold = too weak to quantify, mostly under pKd 3.1 to 4
Conditions: plain residues with an end cap or a label only (N-terminal biotin on a linker: ado-ado)

| Binder | pKd |
| --- | --- |
| B1 | below the threshold |
| B2 | below the threshold |
| B3 | below the threshold |
| B4 | below the threshold |

Target: MAST2, Q6P0Q8
Sequence (Q6P0Q8 1099-1202): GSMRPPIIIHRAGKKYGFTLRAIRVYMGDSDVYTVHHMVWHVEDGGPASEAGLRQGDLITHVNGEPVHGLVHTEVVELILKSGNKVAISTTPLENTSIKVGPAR
Test: holdup assay
Set-up: key: below the threshold = too weak to quantify, mostly under pKd 3.1 to 4
Conditions: plain residues with an end cap or a label only (N-terminal biotin on a linker: ado-ado)

| Binder | pKd |
| --- | --- |
| B1 | 5.59 |
| B2 | 5.45 |
| B3 | 5.2 |
| B4 | 3.73 |

Target: LNX1_3, Q8TBB1
Sequence (Q8TBB1 500-596): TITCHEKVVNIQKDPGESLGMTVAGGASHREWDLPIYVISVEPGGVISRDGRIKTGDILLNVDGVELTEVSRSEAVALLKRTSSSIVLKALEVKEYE
Test: holdup assay
Set-up: key: below the threshold = too weak to quantify, mostly under pKd 3.1 to 4
Conditions: plain residues with an end cap or a label only (N-terminal biotin on a linker: ado-ado)

| Binder | pKd |
| --- | --- |
| B1 | below the threshold |
| B2 | below the threshold |
| B3 | below the threshold |
| B4 | below the threshold |

Target: Inadl_2, Q8NI35
Sequence (Q8NI35 238-335): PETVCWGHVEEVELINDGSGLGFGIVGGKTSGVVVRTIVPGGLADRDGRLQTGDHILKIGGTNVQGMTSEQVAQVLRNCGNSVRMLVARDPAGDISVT
Test: holdup assay
Set-up: key: below the threshold = too weak to quantify, mostly under pKd 3.1 to 4
Conditions: plain residues with an end cap or a label only (N-terminal biotin on a linker: ado-ado)

| Binder | pKd |
| --- | --- |
| B1 | below the threshold |
| B2 | below the threshold |
| B3 | below the threshold |
| B4 | 4.27 |

Target: T11, MPP2, Q14168
T11 sequence (Q14168 180-250, limits assumed, looked up): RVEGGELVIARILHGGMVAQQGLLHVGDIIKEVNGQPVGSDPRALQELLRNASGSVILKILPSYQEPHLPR
Test: holdup assay
Set-up: key: below the threshold = too weak to quantify, mostly under pKd 3.1 to 4
Conditions: plain residues with an end cap or a label only (N-terminal biotin on a linker: ado-ado)

| Binder | pKd |
| --- | --- |
| B1 | below the threshold |
| B2 | below the threshold |
| B3 | below the threshold |
| B4 | below the threshold |

Target: T12, GRIP1_5, Q9Y3R0
T12 sequence (Q9Y3R0 568-668, limits assumed, looked up): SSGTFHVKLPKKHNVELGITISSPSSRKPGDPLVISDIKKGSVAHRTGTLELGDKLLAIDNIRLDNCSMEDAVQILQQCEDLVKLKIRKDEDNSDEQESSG
Test: holdup assay
Set-up: key: below the threshold = too weak to quantify, mostly under pKd 3.1 to 4
Conditions: plain residues with an end cap or a label only (N-terminal biotin on a linker: ado-ado)

| Binder | pKd |
| --- | --- |
| B1 | below the threshold |
| B2 | below the threshold |
| B3 | below the threshold |
| B4 | below the threshold |

Target: SCRIB_1, Q14160
Sequence (Q14160 718-814): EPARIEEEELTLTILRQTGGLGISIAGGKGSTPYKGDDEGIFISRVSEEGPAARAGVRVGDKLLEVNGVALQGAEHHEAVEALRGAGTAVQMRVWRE
Test: holdup assay
Set-up: key: below the threshold = too weak to quantify, mostly under pKd 3.1 to 4
Conditions: plain residues with an end cap or a label only (N-terminal biotin on a linker: ado-ado)

| Binder | pKd |
| --- | --- |
| B1 | 4.72 |
| B2 | 3.92 |
| B3 | 3.72 |
| B4 | below the threshold |

Target: T13, PARD3B_1, Q8TEW8
T13 sequence (Q8TEW8 196-299, limits assumed, looked up): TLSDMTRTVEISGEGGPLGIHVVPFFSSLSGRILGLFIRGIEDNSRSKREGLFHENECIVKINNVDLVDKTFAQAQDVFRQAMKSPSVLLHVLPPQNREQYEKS
Test: holdup assay
Set-up: key: below the threshold = too weak to quantify, mostly under pKd 3.1 to 4
Conditions: plain residues with an end cap or a label only (N-terminal biotin on a linker: ado-ado)

| Binder | pKd |
| --- | --- |
| B1 | below the threshold |
| B2 | 4.32 |
| B3 | below the threshold |
| B4 | 4.95 |
